Six molecules from patent publication US20260167734A1 (PROVIDENCE HEALTH AND SERVICES OREGON, published 2026) can be followed below.

For orientation: Kd means the free concentration of one partner at which half of the binding sites on the other are occupied at equilibrium, for simple one-to-one binding. Higher therefore signals lower affinity. As a reminder, the EC50 (read off the curve) is the concentration that produces a half-maximal response. Read a high EC50 (read off the curve) as weaker potency. Broadly, the koff is the rate constant with which the complex falls apart. The term kon denotes the rate constant with which the complex forms.

For assay [1], the target named is T1, human FasL, cell surface (membrane-bound) (human, UniProt P48023 1-281).
T1 sequence: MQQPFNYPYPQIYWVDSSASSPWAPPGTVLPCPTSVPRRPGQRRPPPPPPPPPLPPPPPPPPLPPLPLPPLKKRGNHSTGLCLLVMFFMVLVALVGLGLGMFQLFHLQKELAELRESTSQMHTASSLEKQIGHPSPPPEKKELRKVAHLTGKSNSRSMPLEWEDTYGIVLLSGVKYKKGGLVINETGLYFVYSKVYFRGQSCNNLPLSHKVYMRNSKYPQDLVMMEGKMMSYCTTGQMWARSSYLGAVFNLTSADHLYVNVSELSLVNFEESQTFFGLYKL
Nature of the assay: cell-based or functional assay.

Assay [2] concerns the target T2, cynomolgus macaque FasL, cell surface (cynomolgus macaque, UniProt P63308 1-280).
T2 construct: Expressed on transfected HEK293T cells
T2 sequence: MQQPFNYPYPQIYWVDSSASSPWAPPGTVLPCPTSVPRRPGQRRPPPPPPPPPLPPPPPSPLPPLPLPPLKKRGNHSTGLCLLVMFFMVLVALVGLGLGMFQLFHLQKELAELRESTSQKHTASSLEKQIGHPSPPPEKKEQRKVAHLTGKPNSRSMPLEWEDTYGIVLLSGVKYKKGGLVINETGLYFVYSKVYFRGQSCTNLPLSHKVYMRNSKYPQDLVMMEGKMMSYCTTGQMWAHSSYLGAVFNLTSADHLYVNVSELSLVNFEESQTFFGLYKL
The assay can be described thus: flow cytometry, HEK293T cells transfected with cynomolgus macaque FasL. As to the method: (§1) FIG. 2B: Binding of M3T01 to cell surface FasL across multiple species (human, cynomolgus macaque, rat, and mouse). M3T01 staining of HEK293T cells transfected with vectors expressing FasL from various species was measured by flow cytometry.
(§2) Next, assays were performed to evaluate binding of M3T01 to cell-surface, membrane-bound FasL from a variety of different species. HEK293T cells were transfected with vectors expressing either mouse, human, rat or cynomolgus macaque FasL and binding by M3T01 was measured by flow cytometry.

The target in assay [3] is T3, soluble human Fas ligand (FasL) (human, UniProt P48023 103-281, limits assumed).
T3 construct: also called sFasL; recombinant soluble FasL
T3 sequence: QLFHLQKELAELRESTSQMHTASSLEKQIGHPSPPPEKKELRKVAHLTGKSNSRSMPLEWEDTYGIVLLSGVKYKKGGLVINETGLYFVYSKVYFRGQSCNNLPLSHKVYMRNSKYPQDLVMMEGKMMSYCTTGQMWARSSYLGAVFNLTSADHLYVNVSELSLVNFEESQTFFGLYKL
The assay can be described thus: multi-dose SPR, BIACORE 8K; multi-dose SPR using BIACORE 8K. As to the method: (§3) Binding of M3T01 to human FasL was measured by multi-dose SPR using BIACORE™ 8K. […] In another study, binding of M3T01 to soluble FasL (sFasL) was measured by ELISA.
In general terms: In SPR one partner is held on a chip, and binding of the other changes the refractive index at the surface.

The next assay concerns the target T4, rat FasL, cell surface (rat, UniProt P36940 1-278).
T4 construct: Expressed on transfected HEK293T cells
T4 sequence: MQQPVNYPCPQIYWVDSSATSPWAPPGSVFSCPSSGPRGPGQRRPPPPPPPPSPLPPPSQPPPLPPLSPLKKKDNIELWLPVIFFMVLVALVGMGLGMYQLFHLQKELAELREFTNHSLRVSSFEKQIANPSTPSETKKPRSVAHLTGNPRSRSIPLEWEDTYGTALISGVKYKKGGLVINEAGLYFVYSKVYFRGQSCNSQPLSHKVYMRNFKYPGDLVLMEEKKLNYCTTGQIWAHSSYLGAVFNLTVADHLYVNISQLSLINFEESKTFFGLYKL
Nature of the assay: flow cytometry, HEK293T cells transfected with rat FasL. Here is the method:
as §1, §2

For assay [4], the target named is T3, soluble human Fas ligand (FasL). Nature of the assay: ELISA on soluble FasL. Background: ELISA stands for enzyme-linked immunosorbent assay.
The next assay deals with T5, mouse FasL, cell surface (mouse, UniProt P41047 1-279).
T5 construct: Expressed on transfected HEK293T cells
T5 sequence: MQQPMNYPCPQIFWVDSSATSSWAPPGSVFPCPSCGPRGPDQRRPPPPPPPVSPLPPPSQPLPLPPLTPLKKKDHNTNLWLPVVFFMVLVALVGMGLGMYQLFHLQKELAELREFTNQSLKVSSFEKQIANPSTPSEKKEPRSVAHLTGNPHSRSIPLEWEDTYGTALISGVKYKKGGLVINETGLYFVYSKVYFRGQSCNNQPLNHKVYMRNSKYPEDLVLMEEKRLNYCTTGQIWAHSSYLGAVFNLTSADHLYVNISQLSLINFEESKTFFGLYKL
The assay can be described thus: flow cytometry, HEK293T cells transfected with mouse FasL. Here is the method: as §1, §2
A general note: A flow cytometer gives signals particle by particle.

Assay [5] addresses T3, soluble human Fas ligand (FasL). Nature of the assay: single-dose SPR. An excerpt: Several variants of the M3T01 antibody were isolated and tested for binding affinity to human FasL using a single-dose SPR affinity measurement. Each variant clone includes the same CDR sequences as M3T01 but includes one or more amino acid substitutions in the framework region (FR) of the VH domain and/or VL domain. The variant sequences, substitutions relative to the M3T01 VH and VL domains, and measured binding affinity are listed in Table 2. The binding affinities reported in Table 2 are from a single-dose SPR study.

Assay [6] has the same target. Nature of the assay: SPR, BIACORE 8K, multi-dose; M3T01 in column 'Ligand', Recombinant Human Fas Ligand in column 'Analyte'. Here is the method:
as §3

Substitutions are numbered along the chain they refer to. Numbers in names are those of the source.

B1: M3T01 (antibody, V domains shown)
VH: QVQLVESGGGVVQPGRSLRLSCAASGFTFSTYGIHWVRQAPGKGLEWVAVIWYDGSDKFYADSVKGRFTISRDNSKNTLYLQMNSLRAEDTAVYYCARDRDNWNYFDYWGQGTLVTVSS
VL: DIQMTQSPSTLSASVGDRVTITCRASQSISSWLAWYQQKPGKAPKFLIYQASSLESGVPSRFSGSGSGTEFTLTISSLQPDDFATYYCQQYNSYITFGQGTRLEIKR
notes: Fully human IgG4/kappa with S228P; also called M27.2
As to B1, the “inhibition of FasL-mediated apoptosis of Jurkat cells (annexin-V externalization, flow cytometry), IC50” value in assay [1] was 0.33 nM. Moreover, the “inhibition of FasL-mediated apoptosis of Jurkat cells, potency relative to sCD95-Fc” value in assay [1] is 310 fold. For the same molecule, the binding result is “binds” in assay [2]; “binds” with rat FasL, cell surface; “binds” with mouse FasL, cell surface. The dissociation constant (Kd) in assay [3] stood at 0.974 nM; in assay [5], 3.2 nM. Further, the “EC50 (read off the curve)” value in assay [4] was around 0.02 nM. In addition, in assay [6], the koff was found to be 0.000235 s⁻¹. For the same molecule, the kon in assay [6] is 242000 M⁻¹ s⁻¹.

B2: M27.3 (antibody, V domains shown)
VH: B1 VH with N77D, Q82E, V93M
VL: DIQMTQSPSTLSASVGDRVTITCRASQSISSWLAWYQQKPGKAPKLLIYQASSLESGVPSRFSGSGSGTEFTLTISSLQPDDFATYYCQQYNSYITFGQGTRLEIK
notes: Variant clone of M3T01 with the same CDRs
In the case of B2, binding in assay [5] was put at a Kd of 1.96 nM.

B3: M27.1 (antibody, V domains shown)
VH: B1 VH with N77D, Q82E, V93M
VL: DIQMTQSPSTLSASVGDRVTITCRASQSISSWLAWYQQKPGKAPKFLIYQASSLESGVPSRFSGSGSGTEFTLTISSLQPDDFATYYCQQYNSYITFGQGTRLEIK
notes: as for B2
On to B3, for which the Kd in assay [5] stood at 1.36 nM.

B4: M27.4 (antibody, V domains shown)
VH: B1 VH
VL: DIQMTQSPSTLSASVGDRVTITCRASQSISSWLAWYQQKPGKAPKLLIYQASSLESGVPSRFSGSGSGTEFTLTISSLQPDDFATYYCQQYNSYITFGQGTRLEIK
notes: as for B2
Take B4: the Kd in assay [5] is 3.1 nM.

B5: M27.6 (antibody, V domains shown)
VH: B1 VH with N77D, Q82E
VL: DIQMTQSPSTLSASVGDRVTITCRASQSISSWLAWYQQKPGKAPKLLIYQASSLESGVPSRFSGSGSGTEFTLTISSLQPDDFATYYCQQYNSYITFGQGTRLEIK
notes: as for B2
In assay [5], B5 displayed a Kd of 2.12 nM. This Kd and that of the molecule before are within 1.5-fold of each other.

B6: M27.5 (antibody, V domains shown)
VH: B1 VH with N77D, V93M
VL: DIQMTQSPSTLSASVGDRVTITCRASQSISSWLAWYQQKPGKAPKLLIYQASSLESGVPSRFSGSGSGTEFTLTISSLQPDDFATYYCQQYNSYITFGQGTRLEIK
notes: as for B2
In assay [5], B6 showed a Kd of 3.44 nM.
